In FireProtDB:

B1: Subtilisin BPN', P00782 (parent)
chain: MRGKKVWISLLFALALIFTMAFGSTSSAQAAGKSNGEKKYIVGFKQTMSTMSAAKKKDVISEKGGKVQKQFKYVDAASATLNEKAVKELKKDPSVAYVEEDHVAHAYAQSVPYGVSQIKAPALHSQGYTGSNVKVAVIDSGIDSSHPDLKVAGGASMVPSETNPFQDNNSHGTHVAGTVAALNNSIGVLGVAPSASLYAVKVLGADGSGQYSWIINGIEWAIANNMDVINMSLGGPSGSAALKAAVDKAVASGVVVVAAAGNEGTSGSSSTVGYPGKYPSVIAVGAVDSSNQRASFSSVGPELDVMAPGVSIQSTLPGNKYGAYNGTSMASPHVAGAAALILSKHPNWTNTQVRSSLENTTTKLGDSFYYGKGLINVQAAAQ
B2: Cyclin-dependent kinase inhibitor 2A, P42771 (parent)
chain: MEPAAGSSMEPSADWLATAAARGRVEEVRALLEAGALPNAPNSYGRRPIQVMMMGSARVAELLLLHGAEPNCADPATLTRPVHDAAREGFLDTLVVLHRAGARLDVRDAWGRLPVDLAEELGHRDVARYLRAAAGGTRGSNHARIDAAEGPSDIPD
B3: Tissue-type plasminogen activator, P00750 (parent)
chain: MDAMKRGLCCVLLLCGAVFVSPSQEIHARFRRGARSYQVICRDEKTQMIYQQHQSWLRPVLRSNRVEYCWCNSGRAQCHSVPVKSCSEPRCFNGGTCQQALYFSDFVCQCPEGFAGKCCEIDTRATCYEDQGISYRGTWSTAESGAECTNWNSSALAQKPYSGRRPDAIRLGLGNHNYCRNPDRDSKPWCYVFKAGKYSSEFCSTPACSEGNSDCYFGNGSAYRGTHSLTESGASCLPWNSMILIGKVYTAQNPSAQALGLGKHNYCRNPDGDAKPWCHVLKNRRLTWEYCDVPSCSTCGLRQYSQPQFRIKGGLFADIASHPWQAAIFAKHRRSPGERFLCGGILISSCWILSAAHCFQERFPPHHLTVILGRTYRVVPGEEEQKFEVEKYIVHKEFDDDTYDNDIALLQLKSDSSRCAQESSVVRTVCLPPADLQLPDWTECELSGYGKHEALSPFYSERLKEAHVRLYPSSRCTSQHLLNRTVTDNMLCAGDTRSGGPQANLHDACQGDSGGPLVCLNDGRMTLVGIISWGLGCGQKDVPGVYTKVTNYLDWIRDNMRP
B4: Proteinase inhibitor, Q03026 (parent)
chain: MSASAKLSRMVCLLCGFFSTGISMASSLILLSASDLAGQWTLQQDEAPAICHLELRDSEVAEASGYDLGGDTACLTRWLPSEPRAWRPTPAGIALLERGGLTLMLLGRQGEGDYRVQKGDGGQLVLRRATP
B5: Triosephosphate isomerase, glycosomal, P04789 (parent)
chain: MSKPQPIAAANWKCNGSQQSLSELIDLFNSTSINHDVQCVVASTFVHLAMTKERLSHPKFVIAAQNAIAKSGAFTGEVSLPILKDFGVNWIVLGHSERRAYYGETNEIVADKVAAAVASGFMVIACIGETLQERESGRTAVVVLTQIAAIAKKLKKADWAKVVIAYEPVWAIGTGKVATPQQAQEAHALIRSWVSSKIGADVAGELRILYGGSVNGKNARTLYQQRDVNGFLVGGASLKPEFVDIIKATQ
B6: Alpha-amylase, P29957 (parent)
chain: MKLNKIITTAGLSLGLLLPSIATATPTTFVHLFEWNWQDVAQECEQYLGPKGYAAVQVSPPNEHITGSQWWTRYQPVSYELQSRGGNRAQFIDMVNRCSAAGVDIYVDTLINHMAAGSGTGTAGNSFGNKSFPIYSPQDFHESCTINNSDYGNDRYRVQNCELVGLADLDTASNYVQNTIAAYINDLQAIGVKGFRFDASKHVAASDIQSLMAKVNGSPVVFQEVIDQGGEAVGASEYLSTGLVTEFKYSTELGNTFRNGSLAWLSNFGEGWGFMPSSSAVVFVDNHDNQRGHGGAGNVITFEDGRLYDLANVFMLAYPYGYPKVMSSYDFHGDTDAGGPNVPVHNNGNLECFASNWKCEHRWSYIAGGVDFRNNTADNWAVTNWWDNTNNQISFGRGSSGHMAINKEDSTLTATVQTDMASGQYCNVLKGELSADAKSCSGEVITVNSDGTINLNIGAWDAMAIHKNAKLNTSSASSTESDWQRTVIFINAQTQSGQDMFIRGGIDHAYANANLGRNCQTSNFECAMPIRHNNLKNVTTSPWKANDNYLDWYGIENGQSSEAEGSATDWTTNVWPAGWGAEKTVNTDGFGVTPLNIWGEHYWMLDVDMDCSKAVNGWFELKAFIKNGQGWETAIAQDNAPYTSTNHMAQCGKINKFEFNNSGVVIRSF
B7: Cocaine esterase, Q9L9D7 (parent)
chain: MVDGNYSVASNVMVPMRDGVRLAVDLYRPDADGPVPVLLVRNPYDKFDVFAWSTQSTNWLEFVRDGYAVVIQDTRGLFASEGEFVPHVDDEADAEDTLSWILEQAWCDGNVGMFGVSYLGVTQWQAAVSGVGGLKAIAPSMASADLYRAPWYGPGGALSVEALLGWSALIGTGLITSRSDARPEDAADFVQLAAILNDVAGAASVTPLAEQPLLGRLIPWVIDQVVDHPDNDESWQSISLFERLGGLATPALITAGWYDGFVGESLRTFVAVKDNADARLVVGPWSHSNLTGRNADRKFGIAATYPIQEATTMHKAFFDRHLRGETDALAGVPKVRLFVMGIDEWRDETDWPLPDTAYTPFYLGGSGAANTSTGGGTLSTSISGTESADTYLYDPADPVPSLGGTLLFHNGDNGPADQRPIHDRDDVLCYSTEVLTDPVEVTGTVSARLFVSSSAVDTDFTAKLVDVFPDGRAIALCDGIVRMRYRETLVNPTLIEAGEIYEVAIDMLATSNVFLPGHRIMVQVSSSNFPKYDRNSNTGGVIAREQLEEMCTAVNRIHRGPEHPSHIVLPIIKR
B8: DNA-binding protein HU 1, P08821 (parent)
chain: MNKTELINAVAEASELSKKDATKAVDSVFDTILDALKNGDKIQLIGFGNFEVRERSARKGRNPQTGEEIEIPASKVPAFKPGKALKDAVAGK

Variants of: B1
Settings: Bacillus amyloliquefaciens; pH 8; Thermal; DSC; Tris-HCl 50 mM; KCl 50 mM; structure 1SUP; whole UniProt chain shown

Variant | Tm [°C] | change of melting temperature, mutant - wild type (higher = more stable) [°C]
T129C S194C | 62 | 3.1
S194C | 57.2 | -1.7

Same assay, conditions: Bacillus amyloliquefaciens; pH 5; 20 °C; Thermal; DSC; Sodium acetate 100 mM; reversible: yes; structure 1SUP; whole UniProt chain shown

Variant | ddG of mutation (higher = less stable) [kcal/mol] | unfolding free energy [kcal/mol]
Q70L | 1.1 | 1
E62Q K87E | 1.3 | 0.8

Same assay, conditions: Bacillus amyloliquefaciens; pH 7.5; Thermal; fluorescence; Pipes 10 mM; transition: 2; structure 1AK9; whole UniProt chain shown

Variant | Tm [°C] | change of melting temperature, mutant - wild type (higher = more stable) [°C] | unfolding enthalpy (calorimetric) [kcal/mol]
T173M G209D | 56.3 | -0.5 | 72.8

Same assay, conditions: Bacillus amyloliquefaciens; pH 8; Thermal; DSC; Tris-HCl 50 mM; CaCl2 10 mM; reversible: no; structure 1SUP; whole UniProt chain shown

Variant | Tm [°C] | change of melting temperature, mutant - wild type (higher = more stable) [°C]
N325S | 80.7 | 2.4

Variants of: B2
Settings: Homo sapiens; pH 7.5; 25 °C; Urea; CD; Sodium phosphate 15 mM; NaCl 100 mM; reversible: yes; structure 1A5E; whole UniProt chain shown

Variant | denaturant m value [kcal/mol/M] | denaturant midpoint (higher = more stable) [M]
P81L | 1.1 | 3.4
D84N | 2 | 1.8
D74N | 1.2 | 1.4

Variants of: B3
Settings: Homo sapiens; pH 7.4; Thermal; DSC; sodium Phosphate 10 mM; structure 1PML; whole UniProt chain shown

Variant | Tm [°C] | change of melting temperature, mutant - wild type (higher = more stable) [°C] | unfolding enthalpy (calorimetric) [kcal/mol]
W277H | 56.6 | -19 | 56
W277F | 58.5 | -17.1 | 40
W277Y | 63.3 | -12.3 | 45

Same assay, conditions: Homo sapiens; pH 4.5; Thermal; CD; Unknown; structure 1PK2; whole UniProt chain shown

Variant | unfolding free energy [kcal/mol]
H264Y | 2.9
H264Y R268G | 3.4

Variants of: B4
Settings: Pseudomonas aeruginosa (strain ATCC 15692 / DSM 22644 / CIP 104116 / JCM 14847 / LMG 12228 / 1C / PRS 101 / PAO1); pH 7.1; 25 °C; GdnHCl; CD; Tris-HCl 50 mM; reversible: yes (75%); structure 2RN4; whole UniProt chain shown

Variant | ddG of mutation (higher = less stable) [kcal/mol] | unfolding free energy [kcal/mol]
W40F | -1.1 | 4.9
A33P | -3.2 | 7
D35A | -2.7 | 6.5

Same assay, conditions: Pseudomonas aeruginosa (strain ATCC 15692 / DSM 22644 / CIP 104116 / JCM 14847 / LMG 12228 / 1C / PRS 101 / PAO1); pH 7.1; Thermal; CD; sodium phosphate 20 mM; NaCl 0.1 M; reversible: yes (75%); structure 2RN4; whole UniProt chain shown

Variant | Tm [°C] | change of melting temperature, mutant - wild type (higher = more stable) [°C] | unfolding enthalpy (van 't Hoff) [kcal/mol]
D35A | 81.5 | 17.7 | 84.5

Variants of: B5
Settings: Trypanosoma brucei brucei; pH 7; Thermal; CD; MOPS 20 mM; reversible: no; structure 1TPE; whole UniProt chain shown

Variant | Tm [°C] | change of melting temperature, mutant - wild type (higher = more stable) [°C]
T75R G76Q | 52 | -5

Same assay, conditions: Trypanosoma brucei brucei; pH 7; Thermal; CD; 3-(N-morpholino)propanesulfonic acid/dithiothreitol 20 mM/0.02 mM; EDTA 0.02 mM; structure 3TIM; whole UniProt chain shown

Variant | Tm [°C]
R191S | 51.6
R191A | 47.3
D227N | 49.3
D227A | 48.7

Same assay, conditions: Trypanosoma brucei brucei; pH 7.4; Thermal; CD; MOPS 20 mM; EDTA 1 mM; reversible: no; structure 1TPE; whole UniProt chain shown

Variant | Tm [°C] | change of melting temperature, mutant - wild type (higher = more stable) [°C]
C14F | 46.5 | -4.9

Variants of: B6
Settings: Pseudoalteromonas haloplanktis; pH 7.2; Thermal; DSC; Mops 30 mM; NaCl 50 mM; reversible: yes; structure 1AQH; whole UniProt chain shown

Variant | Tm [°C] | change of melting temperature, mutant - wild type (higher = more stable) [°C] | unfolding enthalpy (calorimetric) [kcal/mol]
K324R N174D V220F Q188I T256V | 51.8 | 7.8 | 277

Same assay, conditions: Pseudoalteromonas haloplanktis; pH 7.2; Thermal; DSC; MOPS 30 mM; NaCl 50 mM; reversible: yes; structure 1AQH; whole UniProt chain shown

Variant | Tm [°C] | change of melting temperature, mutant - wild type (higher = more stable) [°C] | unfolding enthalpy (calorimetric) [kcal/mol]
Q82C A123C | 40 | -4 | 78

Variants of: B7
Settings: Rhodococcus sp. (strain MB1 Bresler); pH 8; Thermal; Fluorescence; Tris 50 mM; structure 1JU3; whole UniProt chain shown

Variant | Tm [°C] | change of melting temperature, mutant - wild type (higher = more stable) [°C]
T172R G173Q | 41.2 | 6.41
L169K | 41.1 | 6.3
G173Q | 37.7 | 2.97

Variants of: B8
Settings: Bacillus subtilis (strain 168); pH 7.5; 20 °C; Thermal; CD; Tris/HCl 5 mM; reversible: yes; whole UniProt chain shown

Variant | unfolding free energy [kcal/mol]
F50W | 8.61
F79W | 9.57
